The values below come from patent US20100093563A1 (published 2010).

This experiment deals with T1, ovalbumin (UniProt P01012 2-386).
T1 sequence: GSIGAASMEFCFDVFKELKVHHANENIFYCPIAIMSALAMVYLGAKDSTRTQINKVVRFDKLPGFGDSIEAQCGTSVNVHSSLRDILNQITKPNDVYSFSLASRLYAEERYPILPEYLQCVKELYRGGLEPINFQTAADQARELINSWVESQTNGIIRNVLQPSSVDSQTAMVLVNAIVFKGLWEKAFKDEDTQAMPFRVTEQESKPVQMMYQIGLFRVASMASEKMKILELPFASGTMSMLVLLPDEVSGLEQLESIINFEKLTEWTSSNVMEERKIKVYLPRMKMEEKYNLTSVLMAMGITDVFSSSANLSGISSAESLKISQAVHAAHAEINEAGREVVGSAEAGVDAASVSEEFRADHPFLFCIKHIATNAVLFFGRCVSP
As to the kind of experiment: phage ELISA, ovalbumin coated 100 ng per well, anti-HA or anti-M13 detection.

B1: 2G12 domain exchanged Fab fragment displayed on phage (Fab, V domains shown)
VH: EVQLVESGGGLVKAGGSLILSCGVSNFRISAHTMNWVRRVPGGGLEWVASISTSSTYRDYADAVKGRFTVSRDDLEDFVYLQMHKMRVEDTAIYYCARKGSDRLSDNDPFDAWGPGTVVTVSP
VL: GVVMTQSPSTLSASVGDTITITCRASQSIETWLAWYQQKPGKAPKLLIYKASTLKTGVPSRFSGSGSGTEFTLTISGLQFDDFATYHCQHYAGYSATFGQGTRVEIKR
notes: also called 2G12 Fab; phage from 2G12 pCAL G13 vector
Consider B1, for which the binding result is recorded as “no binding”.
